From IntAct's records for PubMed 34706264

B1: ORF3a protein (SARS-CoV-2), P0DTC3 (parent)
chain: MDLFMRIFTIGTVTLKQGEIKDATPSDFVRATATIPIQASLPFGWLIVGVALLAVFQSASKIITLKKRWQLALSKGVHFVCNLLLLFVTVYSHLLLVAAGLEAPFLYLYALVYFLQSINFVRIIMRLWLCWKCRSKNPLLYDANYFLCWHTNCYDYCIPYNSVTSSIVITSGDGTTSPISEHDYQIGGYTEKWESGVKDCVVLHSYFTSDYYQLYSTQLSTDTGVEHVTFFIYNKIVDEPEEHVQIHTIDGSSGVVNPVMEPIYDEPTTTTSVPL
B2: ORF3a protein (SARS-CoV-2), P0DTC3 (parent)
chain: B1 chain
partner: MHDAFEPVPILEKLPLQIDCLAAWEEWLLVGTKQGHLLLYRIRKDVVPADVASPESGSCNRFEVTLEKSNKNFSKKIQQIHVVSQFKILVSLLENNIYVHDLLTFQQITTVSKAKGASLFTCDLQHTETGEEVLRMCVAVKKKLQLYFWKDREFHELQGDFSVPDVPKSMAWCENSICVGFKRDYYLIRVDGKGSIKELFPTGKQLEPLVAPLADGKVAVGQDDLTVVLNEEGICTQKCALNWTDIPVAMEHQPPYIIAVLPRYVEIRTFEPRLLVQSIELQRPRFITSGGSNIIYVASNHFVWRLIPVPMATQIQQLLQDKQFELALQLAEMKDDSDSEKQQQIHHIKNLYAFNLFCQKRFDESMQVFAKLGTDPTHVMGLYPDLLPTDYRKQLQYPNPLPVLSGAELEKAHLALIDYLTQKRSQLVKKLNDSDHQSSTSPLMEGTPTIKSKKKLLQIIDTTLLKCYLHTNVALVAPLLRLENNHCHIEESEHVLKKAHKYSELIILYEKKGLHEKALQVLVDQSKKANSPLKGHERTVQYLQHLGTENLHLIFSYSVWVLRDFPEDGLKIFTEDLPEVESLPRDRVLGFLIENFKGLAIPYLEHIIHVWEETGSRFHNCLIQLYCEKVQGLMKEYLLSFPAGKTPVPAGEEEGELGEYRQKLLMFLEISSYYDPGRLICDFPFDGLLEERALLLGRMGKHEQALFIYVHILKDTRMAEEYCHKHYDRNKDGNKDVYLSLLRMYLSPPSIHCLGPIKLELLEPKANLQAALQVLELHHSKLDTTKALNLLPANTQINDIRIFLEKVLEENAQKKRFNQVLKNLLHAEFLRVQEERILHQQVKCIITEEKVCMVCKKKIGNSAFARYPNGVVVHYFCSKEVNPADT

Variants of: B1
Details: with stx4_human STX4, Q12846
Chain of stx4_human STX4, Q12846 (Q12846 whole entry): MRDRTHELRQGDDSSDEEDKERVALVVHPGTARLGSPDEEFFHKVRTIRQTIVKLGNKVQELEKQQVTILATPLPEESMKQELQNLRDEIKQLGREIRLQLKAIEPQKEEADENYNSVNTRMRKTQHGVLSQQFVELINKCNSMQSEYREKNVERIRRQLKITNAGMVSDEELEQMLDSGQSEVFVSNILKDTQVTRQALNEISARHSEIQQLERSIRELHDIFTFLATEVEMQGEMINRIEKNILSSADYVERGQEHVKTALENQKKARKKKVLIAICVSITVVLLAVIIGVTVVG
For S171E, the “effect of a mutation on the interaction” value was “disrupting interaction strength”.

Variants of: B1
Details: with vamp7_human VAMP7, P51809
Chain of vamp7_human VAMP7, P51809 (P51809 whole entry): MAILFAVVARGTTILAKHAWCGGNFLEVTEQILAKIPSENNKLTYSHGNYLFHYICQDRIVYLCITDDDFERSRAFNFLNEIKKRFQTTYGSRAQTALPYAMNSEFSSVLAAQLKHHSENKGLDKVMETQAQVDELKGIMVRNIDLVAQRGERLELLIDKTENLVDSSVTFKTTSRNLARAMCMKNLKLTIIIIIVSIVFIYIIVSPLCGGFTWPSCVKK
In the case of S171E, the “effect of a mutation on the interaction” value is reported as “disrupting interaction strength”.

Variants of: B2
Details: with vps39_human VPS39, Q96JC1
With S171E the “effect of a mutation on the interaction” value was “disrupting interaction strength”. In the case of W193R, the “effect of a mutation on the interaction” value is reported as “decreasing interaction strength”.

Variants of: B2
Details: with vps39_human VPS39, Q96JC1
Remark: another data set of the same source
With MDLFMRIFTIGTVTLKQGEIKDATPSDFVRATATIPIQASLPFGWLIVGVALLAVFESASKIITLKKRWQLALSKGVHFVCNLLLLFVTVYSHLLLVAAGLEAPFLYLYALVYFLQSINFVRIIMRLWLCWKCRSKNPLLYDANYFLCWHTNCYDYCIPYNSVTSSIVITSGDGTTSPISEHDYQIGGYTEKWESGVKDCVVLHSYFTSDYYQLYSTQLSTDTGVEHVTFFIYNKIVDEPEEHVQIHTIDGSSGVVNPVMEPIYDEPTTTTSVPL [Q57E] the “effect of a mutation on the interaction” value was “with no effect”. S58L was tested, and the “effect of a mutation on the interaction” value was “with no effect”. In the case of Q116L, the “effect of a mutation on the interaction” value is reported as “with no effect”.
